# According to patent US20030073111:
# B1: IKKα-ΔLH (protein)
# chain: MERPPGLRPGAGGPWEMRERLGTGGFGNVSLYQHRELDLKIAIKSCRLELSSKNRERWCHEIQIMKKLDHANVVKACDVPEELNFLINDVPLLAMEYCSGGDLRKLLNKPENCCGLKESQILSLLSDIGSGIRYLHENKIIHRDLKPENIVLQDVGGKTIHKIIDLGYAKDVDQGSLCTSFVGTLQYLAPELFENKPYTATVDYWSFGTMVFECIAGYRPFLHHLQPFTWHEKIKKKDPKCIFACEEMTGEVRFSSHLPQPNSLCSLIVEPMESWLQLMLNWDPQQRGGPIDLTLKQPRCFALMDHILNLKIVHILNMTSAKIISFLLPCDESLHSLQSRIERETGINTGSQELLSETGISLDPRKPASQCVLDGVRGCDSYMVYLFDKSKTVYEGPFASRSLSDCVNYIVQDSKIQLPIIQLRKVWAEAVHYVSGLKEDYSRLFQGQRAAIFRKNVKSMERNGRKGHSLF
# B2: IKKα/CHUK (protein)
# chain: MERPPGLRPGAGGPWEMRERLGTGGFGNVSLYQHRELDLKIAIKSCRLELSSKNRERWCHEIQIMKKLDHANVVKACDVPEELNFLINDVPLLAMEYCSGGDLRKLLNKPENCCGLKESQILSLLSDIGSGIRYLHENKIIHRDLKPENIVLQDVGGKTIHKIIDLGYAKDVDQGSLCTSFVGTLQYLAPELFENKPYTATVDYWSFGTMVFECIAGYRPFLHHLQPFTWHEKIKKKDPKCIFACEEMTGEVRFSSHLPQPNSLCSLIVEPMESWLQLMLNWDPQQRGGPIDLTLKQPRCFALMDHILNLKIVHILNMTSAKIISFLLPCDESLHSLQSRIERETGINTGSQELLSETGISLDPRKPASQCVLDGVRGCDSYMVYLFDKSKTVYEGPFASRSLSDCVNYIVQDSKIQLPIIQLRKVWAEAVHYVSGLKEDYSRLFQGQRAAMLSLLRYNANLTKMKNTLISASQQLKAKLEFFRKSIQLDLERYSEQMTYGISSEKMLKAWKEMEEKAIHYSEVGVIGYLEDQIMSLHTEIMELQKSPYGRRQGDLMESLEQRAIDLYKQLKHRPPDHLYSDSTEMVKIIVHTVQSQDRVLKELFGHLSKLLGCKQKIIDLLPKVEVALSNIKEADNTVMFMQGKRQKEIWHLLKIACTQSSARSLVGSSLEGTVTPPVSAWLPPTLADREHPLTCVVTPQDGETLAQMIEENLNCLGHLSTIIREANEDQSSSLMSLDWSWLAE
# B3: IKKα-ΔCm (protein)
# chain: MERPPGLRPGAGGPWEMRERLGTGGFGNVSLYQHRELDLKIAIKSCRLELSSKNRERWCHEIQIMKKLDHANVVKACDVPEELNFLINDVPLLAMEYCSGGDLRKLLNKPENCCGLKESQILSLLSDIGSGIRYLHENKIIHRDLKPENIVLQDVGGKTIHKIIDLGYAKDVDQGSLCTSFVGTLQYLAPELFENKPYTATVDYWSFGTMVFECIAGYRPFLHHLQPFTWHEKIKKKDPKCIFACEEMTGEVRFSSHLPQPNSLCSLIVEPMESWLQLMLNWDPQQRGGPIDLTLKQPRCFALMDHILNLKIVHILNMTSAKIISFLLPCDESLHSLQSRIERETGINTGSQELLSETGISLDPRKPASQCVLDGVRGCDSYMVYLFDKSKTVYEGPFASRSLSDCVNYIVQDSKIQLPIIQLRKVWAEAVHYVSGLKEDYSRLFQGQRAA
# Biological target: GST-IκBα (1-62)
row,Protein,immunoprecipitatable kinase activity towards GST-IκBα(1-62)
1,B1,TNF-α stimulation of HEK293 cells transfected with each IKKα/CHUK isoform resulted in an increase in immunoprecipitatable kinase activity towards GST-IκBα(1-62)
2,B2,TNF-α stimulation of HEK293 cells transfected with each IKKα/CHUK isoform resulted in an increase in immunoprecipitatable kinase activity towards GST-IκBα(1-62)
3,B3,TNF-α stimulation of HEK293 cells transfected with each IKKα/CHUK isoform resulted in an increase in immunoprecipitatable kinase activity towards GST-IκBα(1-62)
